Experimental data published in PMC6102232 (2018).

T1: NCBD1 NCBD (Mus musculus, UniProt P45481)
T1 chain: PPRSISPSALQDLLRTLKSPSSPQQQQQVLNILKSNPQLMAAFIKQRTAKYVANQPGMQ

T2: NCBD2 NCBD (Mus musculus, UniProt P45481)
T2 chain: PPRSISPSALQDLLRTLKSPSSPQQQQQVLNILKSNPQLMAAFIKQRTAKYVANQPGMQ


Tests used:
[1] = target: ACTR-Avi (Avi-tagged, biotinylated, Cy3B-labelled ACTR) (human); experiment: FRET or BRET
[2] = target: T1, NCBD1 NCBD
[3] = target: T2, NCBD2 NCBD

Kd [2] [nM]	Kd [3] [nM]	Molecule	kon [1] [M⁻¹ s⁻¹]
		NCBD wt (single-cysteine variant labelled with CF680R) (domain or fragment)	2.9e+08
78	650	ACTR ACTR (protein) GTQNRPLLRNSLDDLVGPPSNLEGQSDERALLDQLHTLLSNTDATGLEEIDRALGIPELVNQGQALEPKQD	
